What was measured:
[1] = target: L,L-diaminopimelate aminotransferase from Chlamydomonas reinhardtii (Chlamydomonas reinhardtii); assay: AUC; sedimentation velocity, 9.2 µM (0.45 mg/mL) Cr-DapL, 20 °C, 50 mM HEPES, 0.5 mM DTT, 1 mM EDTA, 50 mM NaCl pH 8.0, 45,000 rpm; c(s) and c(M) distributions in SEDFIT
purified protein [2] = substrate: N[C@@H](CCC[C@H](N)C(=O)O)C(=O)O; assay: purified protein; type: biochemical, Chlamydomonas reinhardtii; settings: reverse direction, amino donor, saturating 2-oxoglutarate, 0.3 mM NADPH, 50 mM NH4Cl, 100 mM HEPES-KOH pH 7.6, 30 °C
purified protein [3] = substrate: O=C(O)C1=N[C@H](C(=O)O)CCC1; assay: purified protein; type: biochemical, Chlamydomonas reinhardtii; settings: forward direction, co-substrate glutamate 5.0 mM, THDPA generated in situ from meso-DAP by C. glutamicum Ddh with NADP, 100 mM HEPES-KOH pH 7.6
purified protein [4] = substrate: N[C@@H](CCC(=O)O)C(=O)O; assay: purified protein; type: biochemical, Chlamydomonas reinhardtii; settings: forward direction, amino donor, saturating THDPA generated in situ from meso-DAP by C. glutamicum Ddh, 100 mM HEPES-KOH pH 7.6
purified protein [5] = substrate: O=C(O)CCC(=O)C(=O)O; assay: purified protein; type: biochemical, Chlamydomonas reinhardtii; settings: reverse direction, amino acceptor, saturating L,L-DAP, 0.3 mM NADPH, 50 mM NH4Cl, 100 mM HEPES-KOH pH 7.6, 30 °C

Row | Molecule | stoichiometry N [1] | Km (purified protein [2]) | Vmax (purified protein [2]) | kcat (purified protein [2]) | Km (purified protein [3]) | Vmax (purified protein [3]) | kcat (purified protein [3]) | Km (purified protein [4]) | kcat (purified protein [4]) | Km (purified protein [5]) | kcat (purified protein [5])
1 | L,L-diaminopimelate aminotransferase from Chlamydomonas reinhardtii (enzyme) | 2 |  |  |  |  |  |  |  |  |  | 
2 | Cr-DapL (Chlamydomonas reinhardtii) (protein, monomeric mass 48,830 Da; dimer; EC 2.6.1.83) MQLNVRSTASGARSSTRSRRMTAVVQAVAQRAGTIDVQRNENFGKLRAGYLFPEIARRRKAHQEKNPDAKIISLGIGDTTEPLPKYIADAMAKAAAGLATREGYSGYGAEQGQGALREAVASTFYGHAGRAADEIFISDGSKCDIARIQMMFGSKPTVAVQDPSYPVYVDTSVMMGMTGDHNGTGFDGIEYMVCNPDNHFFPDLSKAKRTDIIFFCSPNNPTGAAATRAQLTELVNFARKNGSILVYDAAYALYISNPDCPKTIYEIPGADEVAIETCSFSKYAGFTGVRLGWTVVPKALKYANGEPVHADWNRVMTTCFNGASNIVQAGGLACLQPEGLKEMNAMIKFYKENAQILKTTFTEMGFSVYGGDDAPYIWVGFPGKPSWDVFAEILERCNIVTTPGSGFGPAGEGFVRASAFGSRENILEAVRRFKEAYGKRN |  | 300 ± 20 µM | 11.6 µmol/min/mg | 19 s⁻¹ | 100 ± 10 µM | 0.68 µmol/min/mg | 1.1 s⁻¹ | 900 ± 400 µM | 1.1 s⁻¹ | 2200 ± 700 µM | 19.0 s⁻¹
